T1: Activin B (human, UniProt P09529 293-407)
T1 chain: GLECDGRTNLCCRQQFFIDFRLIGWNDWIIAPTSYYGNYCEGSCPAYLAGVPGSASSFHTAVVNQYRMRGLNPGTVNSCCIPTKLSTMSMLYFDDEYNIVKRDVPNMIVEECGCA

T2: Activin A (human, UniProt P08476 311-426)
T2 sequence: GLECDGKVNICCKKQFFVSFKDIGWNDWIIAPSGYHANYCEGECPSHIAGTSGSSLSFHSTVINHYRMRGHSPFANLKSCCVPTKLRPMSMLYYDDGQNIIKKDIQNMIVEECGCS

T3: Activin AC (human, UniProt P55103 237-352)
T3 sequence 1: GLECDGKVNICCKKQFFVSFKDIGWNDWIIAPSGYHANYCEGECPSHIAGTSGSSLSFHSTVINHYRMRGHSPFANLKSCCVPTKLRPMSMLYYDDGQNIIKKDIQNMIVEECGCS
T3 sequence 2: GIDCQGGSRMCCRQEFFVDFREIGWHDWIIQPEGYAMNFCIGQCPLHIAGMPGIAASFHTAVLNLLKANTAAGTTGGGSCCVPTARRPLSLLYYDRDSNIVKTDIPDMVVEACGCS

T4: Activin AB (human, UniProt P08476 311-426; P09529 293-407)
T4 chain 1: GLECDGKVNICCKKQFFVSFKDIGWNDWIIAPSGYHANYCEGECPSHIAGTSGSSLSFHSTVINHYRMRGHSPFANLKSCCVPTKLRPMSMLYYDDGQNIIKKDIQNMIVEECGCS
T4 chain 2: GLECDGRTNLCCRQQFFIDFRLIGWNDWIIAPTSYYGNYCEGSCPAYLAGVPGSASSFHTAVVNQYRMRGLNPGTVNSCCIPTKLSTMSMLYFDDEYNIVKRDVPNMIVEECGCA

T5: Activin A (R&D Systems, #338-AC) (human, UniProt P08476 311-426)
T5 construct: Bought protein; also called inhibin-βA dimer; homodimer of two βA subunits
T5 sequence: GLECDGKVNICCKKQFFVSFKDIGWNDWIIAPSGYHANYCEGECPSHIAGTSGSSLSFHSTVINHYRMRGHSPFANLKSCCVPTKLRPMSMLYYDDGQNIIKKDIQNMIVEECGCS


Experiments:
Activin B = target: T1, Activin B; assay: cell-based or functional assay
Activin A [1] = target: T2, Activin A; assay: cell-based or functional assay
Activin A [2] = target: T2, Activin A; assay: SPR, 5 nM Activin A + 0.00 nM binder (no inhibitor) over hActRIIA-hFc surface
Protocol: (§1) The binding signal (RU) was measured at 150 seconds after the start of the injection, and this signal was subtracted by the measured RU value for a negative control reference surface to determine the specific binding signal.

Activin A [3] = target: T2, Activin A; assay: SPR, 5 nM Activin A + 7.5 nM binder over Follistatin-288 surface
Protocol: as §1

Activin A [4] = target: T2, Activin A; assay: SPR, 5 nM Activin A + 7.50 nM binder over hActRIIA-hFc surface
Protocol: as §1

Activin A [5] = target: T2, Activin A; assay: SPR, 5 nM Activin A + 0 nM binder (no inhibitor) over Follistatin-288 surface
Protocol: as §1

Activin A [6] = target: T2, Activin A; assay: SPR, 5 nM Activin A + 3.75 nM binder over Follistatin-288 surface
Protocol: as §1

Activin A [7] = target: T2, Activin A; assay: SPR, 5 nM Activin A + 15 nM binder over Follistatin-288 surface
Protocol: as §1

Activin A [8] = target: T2, Activin A; assay: SPR, 5 nM Activin A + 1.88 nM binder over hActRIIA-hFc surface
Protocol: as §1

Activin A [9] = target: T2, Activin A; assay: SPR, 5 nM Activin A + 15 nM binder over hActRIIA-hFc surface
Protocol: as §1

Activin A [10] = target: T2, Activin A; assay: SPR, 5 nM Activin A + 1.88 nM binder over Follistatin-288 surface
Protocol: as §1

Activin A [11] = target: T2, Activin A; assay: SPR, 5 nM Activin A + 0.94 nM binder over hActRIIA-hFc surface
Protocol: as §1

Activin A [12] = target: T2, Activin A; assay: SPR, 5 nM Activin A + 60 nM binder over hActRIIA-hFc surface
Protocol: as §1

Activin A [13] = target: T2, Activin A; assay: SPR, 5 nM Activin A + 60 nM binder over Follistatin-288 surface
Protocol: as §1

Activin A [14] = target: T2, Activin A; assay: SPR, 5 nM Activin A + 30 nM binder over hActRIIA-hFc surface
Protocol: as §1

Activin AC = target: T3, Activin AC; assay: cell-based or functional assay
Activin AB = target: T4, Activin AB; assay: cell-based or functional assay
Activin A [15] = target: T2, Activin A; assay: SPR, 5 nM Activin A + 3.75 nM binder over hActRIIA-hFc surface
Protocol: as §1

Activin A [16] = target: T2, Activin A; assay: SPR, 5 nM Activin A + 30 nM binder over Follistatin-288 surface
Protocol: as §1

Activin A [17] = target: T2, Activin A; assay: SPR, 5 nM Activin A + 0.94 nM binder over Follistatin-288 surface
Protocol: as §1

[18] = target: T5, Activin A (R&D Systems, #338-AC); assay: SPR blocking: 5 nM Activin A + 3.75 nM binder over hActRIIB-hFc (Control 4) surface
[19] = target: T5, Activin A (R&D Systems, #338-AC); assay: SPR blocking: 5 nM Activin A + 15 nM binder over hActRIIB-hFc (Control 4) surface
Protocol: as §1

[20] = target: T5, Activin A (R&D Systems, #338-AC); assay: SPR blocking: 5 nM Activin A + 0.00 nM binder over hActRIIB-hFc (Control 4) surface
Protocol: as §1

[21] = target: T5, Activin A (R&D Systems, #338-AC); assay: SPR blocking: 5 nM Activin A + 0.94 nM binder over hActRIIB-hFc (Control 4) surface
Protocol: as §1

[22] = target: T5, Activin A (R&D Systems, #338-AC); assay: SPR blocking: 5 nM Activin A + 7.50 nM binder over hActRIIB-hFc (Control 4) surface
Protocol: as §1

[23] = target: T5, Activin A (R&D Systems, #338-AC); assay: SPR blocking: 5 nM Activin A + 60 nM binder over hActRIIB-hFc (Control 4) surface
Protocol: as §1

[24] = target: T5, Activin A (R&D Systems, #338-AC); assay: SPR blocking: 5 nM Activin A + 30 nM binder over hActRIIB-hFc (Control 4) surface
Protocol: as §1

[25] = target: T5, Activin A (R&D Systems, #338-AC); assay: SPR blocking: 5 nM Activin A + 1.88 nM binder over hActRIIB-hFc (Control 4) surface
Protocol: as §1

Row | Binder | % bound RU w/ no inhibitor [18] [%] | % bound RU w/ no inhibitor [19] [%] | % bound RU w/ no inhibitor [20] [%] | % bound RU w/ no inhibitor [21] [%] | % bound RU w/ no inhibitor [22] [%] | % bound RU w/ no inhibitor [23] [%] | % bound RU w/ no inhibitor [24] [%] | % bound RU w/ no inhibitor [25] [%] | other results
1 | H4H10433P2 (antibody, human IgG4, V domains shown) VH: EVQLVESGGGLVQAGRSLRLSCEASGFTFDDYGMHWVRQGPGKGLEWVSGISWNSGNIDYADSVKGRFTISRDNAKTSLYLQMNSLKTDDTALYFCAKDAVGFNWNYFLFDYWGQGTLVTVSS VL: not shown | – | – | – | – | – | – | – | – | IC50, inhibition of 50 pM Activin B in A204/CAGAx12-Luc luciferase bioassay (Activin B): 1e-07 M; IC50, inhibition of 100 pM Activin A in A204/CAGAx12-Luc luciferase bioassay (Activin A [1]): 1.5e-10 M
2 | H4H10446P2 (antibody, human IgG4, V domains shown, also called mAb2) VH: QVQLQESGPGLVKPSETLSLTCTVSGGSFSSHFWSWIRQPPGKGLEWIGYILYTGGTSFNPSLKSRVSMSVGTSKNQFSLKLSSVTAADTAVYYCARARSGITFTGIIVPGSFDIWGQGTMVTVSS VL: not shown [H4H10446P2, listing 1 of 2 here] | – | – | – | – | – | – | – | – | % bound RU w/ no inhibitor (Activin A [2]): 100%; % bound RU w/ no inhibitor (Activin A [3]): 3%; % bound RU w/ no inhibitor (Activin A [4]): 94%; % bound RU w/ no inhibitor (Activin A [5]): 100%; % bound RU w/ no inhibitor (Activin A [6]): 7%; % bound RU w/ no inhibitor (Activin A [7]): 3%; % bound RU w/ no inhibitor (Activin A [8]): 115%; % bound RU w/ no inhibitor (Activin A [9]): 108%; % bound RU w/ no inhibitor (Activin A [10]): 54%; % bound RU w/ no inhibitor (Activin A [11]): 111%; % bound RU w/ no inhibitor (Activin A [12]): 118%; % bound RU w/ no inhibitor (Activin A [13]): 3%; % bound RU w/ no inhibitor (Activin A [14]): 98%; IC50, inhibition of 4 nM Activin AC in A204/CAGAx12-Luc luciferase bioassay (Activin AC): 5.6 nM; IC50, inhibition of 30 pM Activin AB in A204/CAGAx12-Luc luciferase bioassay (Activin AB): 8.2e-09 M; IC50, inhibition of 100 pM Activin A in A204/CAGAx12-Luc luciferase bioassay (Activin A [1]): 4.7e-11 M; % bound RU w/ no inhibitor (Activin A [15]): 85%; % bound RU w/ no inhibitor (Activin A [16]): 3%; % bound RU w/ no inhibitor (Activin A [17]): 77%
3 | H4H10442P2 (antibody, human IgG4, V domains shown) VH: QVQLQESGPGLVKPSETLSITCTVSGGSFSSHFWTWIRQPPGKGLEWIGYLHYSGGTSYNPSLKSRVIISVDTSKNQFSLKLNSVTAADTAVYYCARARSGITFGGLIVPGSFDIWGQGTMVTVSS VL: not shown | 88 | 115 | 100 | 110 | 103 | 124 | 122 | 106 | –
4 | H4H10446P2 (antibody, human IgG4, V domains shown, also called mAb2) VH: QVQLQESGPGLVKPSETLSLTCTVSGGSFSSHFWSWIRQPPGKGLEWIGYILYTGGTSFNPSLKSRVSMSVGTSKNQFSLKLSSVTAADTAVYYCARARSGITFTGIIVPGSFDIWGQGTMVTVSS VL: not shown [H4H10446P2, listing 2 of 2 here] | 76 | 115 | 100 | 107 | 95 | 129 | 89 | 105 | –
5 | H4H10430P (antibody, human IgG4, V domains shown, also called mAb1) VH: EVQLVESGGGLVQPGRSLRLSCKASGFAFDDFAMHWVRQAPGKGLEWVSGIVWNSGDIGYADSVKGRFTISRDNAKNSLYLQLNSLRTEDTALYFCVKDMVRGLMGFNYYGMDVWGQGTTVTVSS VL: EIVLTQSPATLSLSPGERATLSCRASQTISTYLVWYRQRPGQAPSLLIYDASNRATDIPARFSGSGSGTDFTLTISSLEPEDFAVYYCQQRSNWPITFGQGTRLEIK | 20 | 3 | 100 | 80 | 4 | 3 | 3 | 62 | –
6 | H4H10440P2 (antibody, human IgG4, V domains shown) VH: EVQLVESGGGVVQPGGSLRLSCAASTFTFDDFAMHWVRQAPGKGLEWVSLITGDGGSTYYADPVKGRFTISRDNSKNSLYLQMNSLRTEDTALYYCVKDWWIAARPDYYYYGMDVWGQGTTVTVSS VL: not shown | 19 | 4 | 100 | 79 | 7 | 4 | 4 | 58 | –
7 | H4H10429P (antibody, human IgG4, V domains shown) VH: QVQLVESGGGVVQPGRSLRLSCVASGFTVSSYGIHWVRQAPGKGLEWVSVIWYDGRNKDYADSVKGRFTISRDNSKNTVYLEMKGLRAEDTALYYCARDKTGDFDSWGQGTLVTVSS VL: DIQMTQSPSSLSASVGDRVTITCRASQNINSFLSWYQQKPGKAPKFLIYDASSIQSGAPSRFSGSGSGTDFTLTISSLQPEDFATYYCQQSYSSPFTFGQGTKLEIK | 19 | 2 | 100 | 87 | 2 | 3 | 2 | 67 | –
8 | H4H10436P2 (antibody, human IgG4, V domains shown) VH: QVQLVESGGGVVQPGRSLRLTCVASGFTVSSYGMHWVRQAPGKGLEWVAVMFYDESKKYYADSVKGRFTISRDNSKNTLYLQMNSLRVEDTAVYYCARDEQLDFEYWGQGTLVTVSS VL: not shown | 19 | 2 | 100 | 80 | 3 | 4 | 3 | 60 | –
9 | H4H10423P (antibody, human IgG4, V domains shown) VH: QVQLQQSGPGLLKPSQTLSLTCAISGDSVSSNSAAWSWIRQSPSRGLEWLGRTYYRANWFNDYALSVKSRITINPVTSTNHFSLQLHSVTPEDTAVYYCAREGALGYYFDSWGQGTLVTVSS VL: not shown | 47 | 42 | 100 | 93 | 42 | 41 | 41 | 78 | –
